Data from article PMC6185872 (Cell Host & Microbe, 2018).

Assays:
B41 SOSIP.664 v4.2 = biological target: T1, B41 SOSIP.664 v4.2 (HIV-1 (clade B B41)); test: cryo-EM structure; conditions: both partners purified
T1 construct: copies: 3 + 3

[1] = biological target: T2, sCD4 D1D2 (domains 1 and 2; residues 1-186 of mature CD4); test: cryo-EM structure; conditions: both partners purified
T2 construct: also called soluble CD4; source: HEK293-6E, transient transfection, purified (Ni-NTA, SEC)

B1: 21c Fab (Fab, V domains shown)
VH: QVQVVQSGAEVRKPGASVKVSCKVSGFTLTGLSIHWVRQAPGKGLEWMGGFGPEENEIIYAQKFQGRVSMTEDTSTNTAYMELSSLRSEDTAVYYCATGGNYYNLWTGYYPLAYWGQGTLVTVSS
VL: QSVLTQPPSVSAAPGQKVTISCSGSSSNIGKNYVSWYQQLPGAAPKLLIFDDTQRPSGIPDRFSGSKSGTSATLAITGLQTGDEADYYCGTWDSSLSTGQLFGGGTKLTVL
notes: also called CD4i antibody 21c
stoichiometry N (B41 SOSIP.664 v4.2): 3 copies per Env trimer | binding result [1]: binds
